Test results published in the supplement of paper PMC10126150.
± gives the standard deviation of the averaged measurements.

test system: ATP; assay: switch fluorescence ratio, 500 uM ATP over buffer (Cy3 cluster intensity, sum of 5 cycles each) (fold (ratio)); higher = stronger signal-on switching upon ATP binding; sequences stand for … in TCGTCGGCAGCGTCAGATGTGTATAAGAGACAGTTTTTTTTTTTTTTTTTTTTTTTTT…TC; settings: aptamer strand: ATP DNA aptamer (quencher-CACCTGGGGGAGTATTGCGGAGGAAGG + anchor), 100 nM annealed; ATP concentration: 500 uM
How it was run: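 Clusters carrying Cy3-labelled switching strands on a modified Illumina MiSeq flow-cell were annealed to 100 nM quencher-labelled ATP aptamer and imaged in selection buffer. They were imaged again after 15 min with 500 uM ATP at 22 °C, over five buffer/ATP cycles with NaOH stripping and re-annealing in between. For each cluster, the fluorescence ratio is the summed Cy3 intensity of the target cycles divided by that of the buffer cycles, averaged per switch-domain sequence. Clusters outside 100-1000 RFU were left out.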
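Note: ATP exposure 15 min at 22 °C before imaging.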

Sequence | switch fluorescence ratio
TAAAAAGACG | 1.04 ± 0.075
TAAAAAGGAC | 0.9809 ± 0.008
TAAAAAGGAT | 1.01 ± 0.02
TAAAAATACT | 1.07 ± 0.11
TAAAAATTTG | 1.07 ± 0.082
TAAAACAGGA | 0.97 ± 0.017
TAAAACATTG | 1.03 ± 0.015
TAAAACCAGT | 1.04 ± 0.035
TAAAACCTAA | 1.12 ± 0.25
TAAAACGGGG | 1.02 ± 0.074
TAAAAGAGAT | 1.04 ± 0.026
TAAAAGATGG | 1.02 ± 0.019
TAAAAGGCGG | 1.03 ± 0.029
TAAAAGGGCG | 1.03 ± 0.012
TAAAAGGTAC | 1.07 ± 0.07
TAAAAGGTGA | 0.99 ± 0.029
TAAAAGTATG | 0.969 ± 0.054
TAAAATGAGA | 0.98 ± 0.031
TAAAATGCAT | 0.979 ± 0.024
TAAAATGGAA | 1.05 ± 0.1
TAAAATGGTG | 1.01 ± 0.035
TAAAATTCGG | 1.01 ± 0.018
TAAACAAACG | 1.12 ± 0.028
TAAACACAGG | 1.16 ± 0.044
TAAACACCTG | 1.02 ± 0.095

Sequence | switch fluorescence ratio
TAAACCGAGC | 1.73 ± 0.27
TAAACGAGGG | 1.01 ± 0.014
TAAACGGGGT | 1.03 ± 0.032
TAAACGGTGC | 1.07 ± 0.023
TAAACTGCGA | 1.07 ± 0.054
TAAAGAAAAA | 1.02 ± 0.029
TAAAGAAAGC | 0.9755 ± 0.0029
TAAAGAAGGG | 0.988 ± 0.033
TAAAGAGGTG | 1.11 ± 0.053
TAAAGCAGGC | 1.11 ± 0.14
TAAAGCGAAC | 1.29 ± 0.098
TAAAGCGTTG | 0.9656 ± 0.0077
TAAAGGACTT | 1.05 ± 0.087
TAAAGGAGAT | 1.03 ± 0.032
TAAAGGAGTT | 0.981 ± 0.032
TAAAGGCTAT | 1 ± 0.026
TAAAGGGCGA | 0.999 ± 0.027
TAAAGGGCGT | 0.967 ± 0.021
TAAAGGGGAT | 1.08 ± 0.16
TAAAGGGTG | 1.08 ± 0.037
TAAAGGTAAT | 1.01 ± 0.024
TAAAGGTTGT | 0.994 ± 0.055
TAAAGTTATT | 1.0106 ± 0.00041
TAAAGTTCTG | 1.01 ± 0.023
TAAATAGGGT | 1.05 ± 0.12

Sequence | switch fluorescence ratio
TAAATAGTAC | 1.07 ± 0.032
TAAATCCGGA | 0.995 ± 0.06
TAAATCTAGA | 1.016 ± 0.01
TAAATGAGGA | 1.03 ± 0.047
TAAATGGA | 1.04 ± 0.039
TAAATGTTAA | 0.9889 ± 0.0051
TAAATTACTA | 1.05 ± 0.04
TAAATTAGTT | 1.01 ± 0.017
TAAATTGCTT | 0.991 ± 0.012
TAAATTTGTA | 0.99 ± 0.028
TAAATTTTAA | 0.9818 ± 0.0082
TAAATTTTTA | 0.986 ± 0.052
TAAATTTTTG | 1.07 ± 0.097
TAACAGAGGT | 1.01 ± 0.033
TAACAGATGG | 1.01 ± 0.029
TAACAGGTGG | 1.02 ± 0.036
TAACAGTTAA | 1.03 ± 0.027
TAACATAATT | 1 ± 0.023
TAACCACCGG | 1.03 ± 0.011
TAACCGATGT | 1.01 ± 0.016
TAACGCTAGA | 1.06 ± 0.03
TAACGCTTAA | 1.09 ± 0.033
TAACGGCGTG | 1.03 ± 0.021
TAACGGGTCG | 0.937 ± 0.06
TAACGTAGGA | 1.07 ± 0.031

Sequence | switch fluorescence ratio
TAACGTCCAG | 0.978 ± 0.012
TAACTATATA | 1.06 ± 0.014
TAACTGCATT | 1.16 ± 0.14
TAACTGGTAC | 1.13 ± 0.05
TAACTGTGAT | 0.988 ± 0.025
TAACTTTCTT | 0.987 ± 0.025
TAAGAAAAGT | 0.9745 ± 0.0014
TAAGAAATGT | 1.04 ± 0.04
TAAGAAGGTC | 1.01 ± 0.054
TAAGAAGTAT | 0.999 ± 0.034
TAAGAGAAGT | 1.018 ± 0.0073
TAAGAGATAG | 0.976 ± 0.012
TAAGAGCCAT | 1.04 ± 0.013
TAAGAGGAGG | 0.98337 ± 0.00017
TAAGAGGAGT | 0.985 ± 0.013
TAAGAGGATC | 1.0083 ± 6.4e-05
TAAGAGGTGT | 1.04 ± 0.062
TAAGAGTAAT | 0.985 ± 0.042
TAAGATATTA | 0.998 ± 0.02
TAAGATGGAG | 1 ± 0.021
TAAGATGGGG | 0.9623 ± 0.0054
TAAGATGTTT | 0.957 ± 0.034
TAAGCGCAGA | 1.01 ± 0.03
TAAGCGCCAT | 1.029 ± 0.0049
TAAGCGGCGA | 0.973 ± 0.013

Sequence | switch fluorescence ratio
TAAGCTGGTA | 0.995 ± 0.036
TAAGGAAAGG | 0.982 ± 0.027
TAAGGAATCG | 1 ± 0.043
TAAGGAATGT | 1.04 ± 0.0038
TAAGGCATTG | 0.996 ± 0.016
TAAGGCGCCG | 0.962 ± 0.031
TAAGGCGGTA | 0.963 ± 0.035
TAAGGCGGTC | 0.991 ± 0.098
TAAGGCTGAA | 1.02 ± 0.039
TAAGGCTTTG | 0.9987 ± 0.0068
TAAGGGCCCG | 0.991 ± 0.069
TAAGGGCGGT | 0.957 ± 0.032
TAAGGGGAGC | 1.01 ± 0.03
TAAGGGGAGG | 1 ± 0.017
TAAGGGGGTA | 0.992 ± 0.039
TAAGGGGTAG | 0.994 ± 0.052
TAAGGGGTGT | 1.03 ± 0.027
TAAGGGTCTT | 0.996 ± 0.047
TAAGGGTGCC | 1.01 ± 0.03
TAAGGGTTCT | 0.9916 ± 0.0089
TAAGGTAAAA | 1.001 ± 0.0041
TAAGGTAACG | 1.05 ± 0.12
TAAGGTAAGG | 1.01 ± 0.031
TAAGGTATTA | 0.972 ± 0.019
TAAGGTGAGG | 1.04 ± 0.023

Sequence | switch fluorescence ratio
TAAGGTGATG | 1.01 ± 0.046
TAAGGTGGGA | 0.996 ± 0.03
TAAGGTGGTT | 0.976 ± 0.034
TAAGGTTACT | 0.977 ± 0.035
TAAGGTTGGC | 1.02 ± 0.04
TAAGTAGCAG | 0.997 ± 0.025
TAAGTATTTT | 1.01 ± 0.027
TAAGTCGAAA | 1 ± 0.019
TAAGTCGTTG | 1.03 ± 0.12
TAAGTGAAAA | 0.995 ± 0.0094
TAAGTGCAAG | 1.01 ± 0.033
TAAGTGGAAC | 1.002 ± 0.0063
TAAGTGGGTT | 0.992 ± 0.034
TAAGTGTAGC | 1.035 ± 0.0035
TAAGTGTATG | 1.007 ± 0.0034
TAAGTGTTGG | 1 ± 0.018
TAAGTTAATA | 1.02 ± 0.016
TAAGTTAGCC | 1.049 ± 0.005
TAAGTTAGGT | 1.03 ± 0.1
TAAGTTGTAA | 0.999 ± 0.019
TAAGTTTTCA | 1.02 ± 0.023
TAATAAATCT | 0.9967 ± 0.0051
TAATAATCCA | 0.994 ± 0.017
TAATACCCCG | 1.06 ± 0.054
TAATACGTTT | 0.986 ± 0.032

Sequence | switch fluorescence ratio
TAATACTATT | 1.05 ± 0.016
TAATAGAATT | 1 ± 0.014
TAATATAACC | 1.04 ± 0.014
TAATATAGGT | 1.018 ± 0.0097
TAATATAGTG | 1.02 ± 0.045
TAATATCGGG | 0.98 ± 0.027
TAATATCTTT | 0.995 ± 0.054
TAATATGGGG | 1.01 ± 0.039
TAATATGGTG | 0.998 ± 0.014
TAATCAACGA | 1 ± 0.019
TAATCAATAT | 1.013 ± 0.0017
TAATCATCGA | 0.99 ± 0.017
TAATCATGGT | 0.969 ± 0.024
TAATCCCTTT | 1.01 ± 0.04
TAATCCGGTC | 1.04 ± 0.094
TAATCGTC | 0.968 ± 0.023
TAATCGTGCT | 0.973 ± 0.019
TAATCTAGGG | 0.985 ± 0.046
TAATCTGAGT | 1.01 ± 0.025
TAATGAATGT | 1.02 ± 0.04
TAATGAGGGG | 0.992 ± 0.033
TAATGAGTGG | 1.0154 ± 0.001
TAATGATTTT | 0.967 ± 0.031
TAATGGAAAT | 0.979 ± 0.022
TAATGGCTCG | 1 ± 0.008

Sequence | switch fluorescence ratio
TAATGGGCGA | 0.976 ± 0.064
TAATGGGCTT | 0.997 ± 0.012
TAATGGGGCG | 0.997 ± 0.025
TAATGGGTGG | 1.02 ± 0.083
TAATGGTCGT | 0.989 ± 0.029
TAATGGTCTT | 1.02 ± 0.14
TAATGTAAAA | 0.992 ± 0.01
TAATGTGGGA | 0.96651 ± 0.00012
TAATGTGTAC | 1.024 ± 0.0044
TAATGTGTGT | 1.016 ± 0.0091
TAATGTGTTA | 1.04 ± 0.13
TAATGTTTTT | 0.985 ± 0.039
TAATTAATCT | 0.992 ± 0.049
TAATTAATTT | 1.02 ± 0.025
TAATTACAGT | 0.9904 ± 0.0021
TAATTATGGG | 1.04 ± 0.056
TAATTATTAA | 1.01 ± 0.019
TAATTCGGCA | 0.995 ± 0.0044
TAATTGATTA | 1.0033 ± 0.00096
TAATTGCTTT | 0.966 ± 0.029
TAATTGGACT | 1.01 ± 0.013
TAATTGGGTG | 1.09 ± 0.031
TAATTTAAAG | 1 ± 0.041
TAATTTAAGT | 1.01 ± 0.028
TAATTTCCTT | 1.06 ± 0.16
